Here are results for 2 proteins from article PMC10047360.

The nature of the data set: Western blot, mature upper band, B3GnT2-/- HEK293T. Particulars: glycan lost; control: wild-type LRP6. A general note: Immunoblotting shows a protein as a band on a membrane.

B1: LRP6: N433Q (protein)
parent chain: MGAVLRSLLACSFCVLLRAAPLLLYANRRDLRLVDATNGKENATIVVGGLEDAAAVDFVFSHGLIYWSDVSEEAIKRTEFNKTESVQNVVVSGLLSPDGLACDWLGEKLYWTDSETNRIEVSNLDGSLRKVLFWQELDQPRAIALDPSSGFMYWTDWGEVPKIERAGMDGSSRFIIINSEIYWPNGLTLDYEEQKLYWADAKLNFIHKSNLDGTNRQAVVKGSLPHPFALTLFEDILYWTDWSTHSILACNKYTGEGLREIHSDIFSPMDIHAFSQQRQPNATNPCGIDNGGCSHLCLMSPVKPFYQCACPTGVKLLENGKTCKDGATELLLLARRTDLRRISLDTPDFTDIVLQLEDIRHAIAIDYDPVEGYIYWTDDEVRAIRRSFIDGSGSQFVVTAQIAHPDGIAVDWVARNLYWTDTGTDRIEVTRLNGTMRKILISEDLEEPRAIVLDPMVGYMYWTDWGEIPKIERAALDGSDRVVLVNTSLGWPNGLALDYDEGKIYWGDAKTDKIEVMNTDGTGRRVLVEDKIPHIFGFTLLGDYVYWTDWQRRSIERVHKRSAEREVIIDQLPDLMGLKATNVHRVIGSNPCAEENGGCSHLCLYRPQGLRCACPIGFELISDMKTCIVPEAFLLFSRRADIRRISLETNNNNVAIPLTGVKEASALDFDVTDNRIYWTDISLKTISRAFMNGSALEHVVEFGLDYPEGMAVDWLGKNLYWADTGTNRIEVSKLDGQHRQVLVWKDLDSPRALALDPAEGFMYWTEWGGKPKIDRAAMDGSERTTLVPNVGRANGLTIDYAKRRLYWTDLDTNLIESSNMLGLNREVIADDLPHPFGLTQYQDYIYWTDWSRRSIERANKTSGQNRTIIQGHLDYVMDILVFHSSRQSGWNECASSNGHCSHLCLAVPVGGFVCGCPAHYSLNADNRTCSAPTTFLLFSQKSAINRMVIDEQQSPDIILPIHSLRNVRAIDYDPLDKQLYWIDSRQNMIRKAQEDGSQGFTVVVSSVPSQNLEIQPYDLSIDIYSRYIYWTCEATNVINVTRLDGRSVGVVLKGEQDRPRAVVVNPEKGYMYFTNLQERSPKIERAALDGTEREVLFFSGLSKPIALALDSRLGKLFWADSDLRRIESSDLSGANRIVLEDSNILQPVGLTVFENWLYWIDKQQQMIEKIDMTGREGRTKVQARIAQLSDIHAVKELNLQEYRQHPCAQDNGGCSHICLVKGDGTTRCSCPMHLVLLQDELSCGEPPTCSPQQFTCFTGEIDCIPVAWRCDGFTECEDHSDELNCPVCSESQFQCASGQCIDGALRCNGDANCQDKSDEKNCEVLCLIDQFRCANGQCIGKHKKCDHNVDCSDKSDELDCYPTEEPAPQATNTVGSVIGVIVTIFVSGTVYFICQRMLCPRMKGDGETMTNDYVVHGPASVPLGYVPHPSSLSGSLPGMSRGKSMISSLSIMGGSSGPPYDRAHVTGASSSSSSSTKGTYFPAILNPPPSPATERSHYTMEFGYSSNSPSTHRSYSYRPYSYRHFAPPTTPCSTDVCDSDYAPSRRMTSVATAKGYTSDLNYDSEPVPPPPTPRSQYLSAEENYESCPPSPYTERSYSHHLYPPPPSPCTDSS
For the protein B1, the localisation_or_trafficking result is listed as “no change”.

B2: LRP6: N486Q (protein)
parent chain: MGAVLRSLLACSFCVLLRAAPLLLYANRRDLRLVDATNGKENATIVVGGLEDAAAVDFVFSHGLIYWSDVSEEAIKRTEFNKTESVQNVVVSGLLSPDGLACDWLGEKLYWTDSETNRIEVSNLDGSLRKVLFWQELDQPRAIALDPSSGFMYWTDWGEVPKIERAGMDGSSRFIIINSEIYWPNGLTLDYEEQKLYWADAKLNFIHKSNLDGTNRQAVVKGSLPHPFALTLFEDILYWTDWSTHSILACNKYTGEGLREIHSDIFSPMDIHAFSQQRQPNATNPCGIDNGGCSHLCLMSPVKPFYQCACPTGVKLLENGKTCKDGATELLLLARRTDLRRISLDTPDFTDIVLQLEDIRHAIAIDYDPVEGYIYWTDDEVRAIRRSFIDGSGSQFVVTAQIAHPDGIAVDWVARNLYWTDTGTDRIEVTRLNGTMRKILISEDLEEPRAIVLDPMVGYMYWTDWGEIPKIERAALDGSDRVVLVNTSLGWPNGLALDYDEGKIYWGDAKTDKIEVMNTDGTGRRVLVEDKIPHIFGFTLLGDYVYWTDWQRRSIERVHKRSAEREVIIDQLPDLMGLKATNVHRVIGSNPCAEENGGCSHLCLYRPQGLRCACPIGFELISDMKTCIVPEAFLLFSRRADIRRISLETNNNNVAIPLTGVKEASALDFDVTDNRIYWTDISLKTISRAFMNGSALEHVVEFGLDYPEGMAVDWLGKNLYWADTGTNRIEVSKLDGQHRQVLVWKDLDSPRALALDPAEGFMYWTEWGGKPKIDRAAMDGSERTTLVPNVGRANGLTIDYAKRRLYWTDLDTNLIESSNMLGLNREVIADDLPHPFGLTQYQDYIYWTDWSRRSIERANKTSGQNRTIIQGHLDYVMDILVFHSSRQSGWNECASSNGHCSHLCLAVPVGGFVCGCPAHYSLNADNRTCSAPTTFLLFSQKSAINRMVIDEQQSPDIILPIHSLRNVRAIDYDPLDKQLYWIDSRQNMIRKAQEDGSQGFTVVVSSVPSQNLEIQPYDLSIDIYSRYIYWTCEATNVINVTRLDGRSVGVVLKGEQDRPRAVVVNPEKGYMYFTNLQERSPKIERAALDGTEREVLFFSGLSKPIALALDSRLGKLFWADSDLRRIESSDLSGANRIVLEDSNILQPVGLTVFENWLYWIDKQQQMIEKIDMTGREGRTKVQARIAQLSDIHAVKELNLQEYRQHPCAQDNGGCSHICLVKGDGTTRCSCPMHLVLLQDELSCGEPPTCSPQQFTCFTGEIDCIPVAWRCDGFTECEDHSDELNCPVCSESQFQCASGQCIDGALRCNGDANCQDKSDEKNCEVLCLIDQFRCANGQCIGKHKKCDHNVDCSDKSDELDCYPTEEPAPQATNTVGSVIGVIVTIFVSGTVYFICQRMLCPRMKGDGETMTNDYVVHGPASVPLGYVPHPSSLSGSLPGMSRGKSMISSLSIMGGSSGPPYDRAHVTGASSSSSSSTKGTYFPAILNPPPSPATERSHYTMEFGYSSNSPSTHRSYSYRPYSYRHFAPPTTPCSTDVCDSDYAPSRRMTSVATAKGYTSDLNYDSEPVPPPPTPRSQYLSAEENYESCPPSPYTERSYSHHLYPPPPSPCTDSS
In the case of B2, the localisation_or_trafficking result is “no change”.
